According to US20240190985A1 (NEW YORK UNIVERSITY, published 2024):
Substitutions are numbered along the chain they refer to. In names and notes the source's numbering stands.

Key:
[1] = molecular target: T1, CD99 endogenously expressed on cells (Jurkat, KOPT-K1) (human, UniProt P14209 23-185, O-linked glycosylation (natural, on cells)); test: flow cytometry titration on KOPT-K1 cells; apparent KD (FIG. 3B)
T1 construct: also called endogenously expressed CD99; CD99 on cells
T1 sequence: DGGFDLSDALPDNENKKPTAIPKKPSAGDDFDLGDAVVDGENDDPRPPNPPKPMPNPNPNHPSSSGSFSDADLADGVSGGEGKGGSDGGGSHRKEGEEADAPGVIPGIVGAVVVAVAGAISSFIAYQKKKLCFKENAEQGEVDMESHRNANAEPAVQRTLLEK
Protocol: (§1) The cells were washed three times, and resuspended in 100 μL of PBS/2% FBS and analyzed on a HyperCyt screener (Satorius). […] Gating for flow cytometry consisted of FSC vs SSC cell gating, followed by single cell gating in FSC-H or FSC-A vs FSC-W to remove aggregates. For all samples cells were gated for Propidium Iodide negative. […] Data collection performed on ZE5 Cell Analyzer (BioRad) or Guava easyCyte (Luminex) flow cytometers. Signals reported are median fluorescence intensities.
To assess if enhanced cytotoxic effect is the consequence of enhanced binding to cells, binding of these antibodies was measured to KOPT-K1 cells (FIG. 3B).

[2] = molecular target: T1, CD99 endogenously expressed on cells …; test: cell-based or functional assay
[3] = molecular target: T2, recombinant CD99 extracellular domain (fusion partner not given) (human, UniProt P14209 23-122); test: Western blot of recombinant CD99
T2 construct: also called CD99 ECD; human CD99; not shown: N-terminal 6xHis tag, AviTag, TEV site and a fusion partner (SUMO or GFP)
T2 sequence: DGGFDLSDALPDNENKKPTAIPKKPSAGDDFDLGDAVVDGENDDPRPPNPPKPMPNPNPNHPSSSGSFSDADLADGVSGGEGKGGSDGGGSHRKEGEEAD

mouse CD99 = molecular target: T3, mouse CD99 (mouse, UniProt Q8VCN6 29-137, limits assumed); test: binding of scFv-Fc to CD99 from different species (FIG. 1C)
T3 sequence (looked up): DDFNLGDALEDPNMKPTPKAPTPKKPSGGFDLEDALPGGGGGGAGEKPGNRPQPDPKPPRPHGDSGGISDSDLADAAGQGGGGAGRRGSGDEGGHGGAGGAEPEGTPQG

[4] = molecular target: T4, Glycoprotein Xg extracellular domain (human, UniProt P55808 22-142); test: binding of scFv-Fc to immobilized homolog ECDs (FIG. 1B)
T4 construct: extracellular domain
T4 sequence (looked up): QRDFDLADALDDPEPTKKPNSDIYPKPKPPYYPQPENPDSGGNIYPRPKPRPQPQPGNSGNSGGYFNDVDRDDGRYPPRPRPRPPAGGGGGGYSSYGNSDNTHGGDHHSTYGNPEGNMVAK

[5] = molecular target: T5, CD99L2 extracellular domain (human, UniProt Q8TCZ2 26-185); test: as above
T5 construct: extracellular domain
T5 sequence (looked up): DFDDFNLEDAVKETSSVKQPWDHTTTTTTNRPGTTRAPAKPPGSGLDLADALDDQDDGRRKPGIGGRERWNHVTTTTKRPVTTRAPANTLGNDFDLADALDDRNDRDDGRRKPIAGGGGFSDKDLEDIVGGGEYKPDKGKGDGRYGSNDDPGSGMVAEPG

[6] = molecular target: T1, CD99 endogenously expressed on cells …; test: flow cytometry on Jurkat cells (FIG. 1E)
Protocol: as §1
To assess if the antibodies bind to CD99 with posttranslational modifications, their binding to CD99 on cells was tested.

[7] = molecular target: T1, CD99 endogenously expressed on cells …; test: flow cytometry titration on Jurkat cells (FIG. 1G)
Protocol: The cells were washed three times, and resuspended in 100 μL of PBS/2% FBS and analyzed on a HyperCyt screener (Satorius). […] Gating for flow cytometry consisted of FSC vs SSC cell gating, followed by single cell gating in FSC-H or FSC-A vs FSC-W to remove aggregates. For all samples cells were gated for Propidium Iodide negative. T-ALL patient samples cells were then gated for human CD45 positive followed by CD34 negative, and finally CD7 positive. For healthy donor PBMC samples cells were gated for human CD45 positive followed by CD34 positive and CD34 negative. Data collection performed on ZE5 Cell Analyzer (BioRad) or Guava easyCyte (Luminex) flow cytometers. Signals reported are median fluorescence intensities.

[8] = molecular target: T6, SAV-CD99 complex (biotinylated CD99 ECD tetramerized on streptavidin) (human, UniProt P22629 37-163 (Streptomyces avidinii entry), limits assumed, DyLight650 label; biotin on the AviTag); test: yeast display binding signal (FIG. 5E)
T6 construct: also called tetramerized CD99; tetramerized SUMO-CD99; not shown: N-terminal 6xHis tag, AviTag, TEV site and fusion partner
T6 sequence (P22629 37-163 limits assumed, one chain of several): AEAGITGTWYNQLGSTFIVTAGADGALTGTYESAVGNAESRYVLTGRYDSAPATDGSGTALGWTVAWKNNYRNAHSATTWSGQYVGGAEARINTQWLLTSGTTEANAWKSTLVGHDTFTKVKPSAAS

B1: 10A1 IgG-E345R (antibody)
heavy: QVQLQQSGPVLVKPSQTLSLTCAISGDSISSDTTAWSWIRRSPSRGLEWLGWTYYRSKWFNYYAVSVKGRVTINPDTSKNQFSLQLSSVTPEDTAVYYCARGNGNGGMDVWGQGTTVTVSSASTKGPSVFPLAPSSKSTSGGTAALGCLVKDYFPEPVTVSWNSGALTSGVHTFPAVLQSSGLYSLSSVVTVPSSSLGTQTYICNVNHKPSNTKVDKKVEPKSCDKTHTCPPCPAPEAAGGPSVFLFPPKPKDTLMISRTPEVTCVVVDVSHEDPEVKFNWYVDGVEVHNAKTKPREEQYNSTYRVVSVLTVLHQDWLNGKEYKCKVSNKALGAPIEKTISKAKGQPRRPQVYTLPPSREEMTKNQVSLTCLVKGFYPSDIAVEWESNGQPENNYKTTPPVLDSDGSFFLYSKLTVDKSRWQQGNVFSCSVMHEALHNHYTQKSLSLSPGK
light: SYVLTQPASASVSPGQTARITCSGDALPKQYAYWYQQKPGQAPVLVIFKDSERPSGVPERFSGSSSGTTVTLTISGAQAEDEADYYCQSVDNSGFYQVFGGGTQLTVLRTVAAPSVFIFPPSDEQLKSGTASVVCLLNNFYPREAKVQWKVDNALQSGNSQESVTEQDSKDSTYSLSSTLTLSKADYEKHKVYACEVTHQGLSSPVTKSFNRGEC
notes: Valency of twelve as a hexamer; also called 10A1 E345R; 'inducible hexamer'
- fold higher KD than IgG-RGY, IgG-HCscFv and IgG [1]: ~3 fold
- IC50 of cytotoxicity (Annexin V, KOPT-K1 cells, 18 hours) [2]: 299 nM Fv

B2: 10A1 IgG-RGY (antibody)
heavy: B1 heavy with E434G, S444Y
light: B1 light
- IC50 of cytotoxicity (Annexin V, KOPT-K1 cells, 18 hours) [2]: 442 nM Fv

B3: clone 22 in the scFv-Fc format (Fc fusion)
chain: QVQLQQSGPGLVKPSQTLSLTCAISGDSVSSNSAAWNWIRQSPSRGLEWLGRTYYRSKWYNDYAVSVKSRITINPDTSKNQFSLQLNSVTPEDTAVYYCARGSYGSGLVWGQGTTVTVSSGSASAPTGILGSGGGGSGGGGSGGGGSNFMLTQPHSVSESPGKTVTISCTGSSGSIASNYVQWYQQRPGSAPTTVIYEDDQRPSGVPDRFSGSLDTSSNSASLTISGLRPEDEADYYCQSYDNKDNVVFGGGTKVTVLSGSSSSLEGCKPCICTVPEVSSVFIFPPKPKDVLTITLTPKVTCVVVDISKDDPEVQFSWFVDDVEVHTAQTQPREEQFNSTFRSVSELPIMHQDWLNGKEFKCRVNSAAFPAPIEKTISKTKGRPKAPQVYTIPPPKEQMAKDKVSLTCMITDFFPEDITVEWQWNGQPAENYKNTQPIMDTDGSYFVYSKLNVQKSNWEAGNTFTCSVLHEGLHNHHTEKSLSHSPGKGGGGLNDIFEAQKIEWHESRHHHHHH
notes: The format mimics the bivalent IgG architecture
- binding result [3]: binds
- binding result (mouse CD99): no binding (tested: 1 µM Fv)
- binding result [4]: no binding (tested: 600 nM Fv)
- binding result [5]: no binding (tested: 600 nM Fv)
- binding result [6]: binds

B4: clone 30 in the scFv-Fc format (Fc fusion)
chain: EVQLLETGGGLVQPGGSLRLSCAASGFTFSSSAMHWVRQAPGKGLEWVAAISYDGSDTYYADSVKGRFTISRDNAKNTLYLQMNSLRDEDTAVYYCARDQVLGSGSLDYWGQGTLVTVSSGILGSGGGGSGGGGSGGGGSNFMLTQPHSVSESPGKTVTISCTRSSGSIGSYYVQWYQQRPGSPPTTVIYEDDKRPSGVPDRFSGSIDSSSNSASLTISGLKTEDEADYYCQSYDSSHVVFGGGTKLTVLSGSSSSLEGCKPCICTVPEVSSVFIFPPKPKDVLTITLTPKVTCVVVDISKDDPEVQFSWFVDDVEVHTAQTQPREEQFNSTFRSVSELPIMHQDWLNGKEFKCRVNSAAFPAPIEKTISKTKGRPKAPQVYTIPPPKEQMAKDKVSLTCMITDFFPEDITVEWQWNGQPAENYKNTQPIMDTDGSYFVYSKLNVQKSNWEAGNTFTCSVLHEGLHNHHTEKSLSHSPGKGGGGLNDIFEAQKIEWHESRHHHHHH
notes: as for B3
- binding result [3]: binds
- binding result (mouse CD99): no binding (tested: 1 µM Fv)
- binding result [4]: no binding (tested: 600 nM Fv)
- binding result [5]: no binding (tested: 600 nM Fv)
- binding result [6]: binds

B5: 10A1 in the scFv-Fc format (Fc fusion)
chain: QVQLQQSGPVLVKPSQTLSLTCAISGDSISSDTTAWSWIRRSPSRGLEWLGWTYYRSKWFNYYAVSVKGRVTINPDTSKNQFSLQLSSVTPEDTAVYYCARGNGNGGMDVWGQGTTVTVSSGILSGSSSSGSSSSGSSSSGYVLTQPASASVSPGQTARITCSGDALPKQYAYWYQQKPGQAPVLVIFKDSERPSGVPERFSGSSSGTTVTLTISGAQAEDEADYYCQSVDNSGFYQVFGGGTQLTVLSGSSSSLEGCKPCICTVPEVSSVFIFPPKPKDVLTITLTPKVTCVVVDISKDDPEVQFSWFVDDVEVHTAQTQPREEQFNSTFRSVSELPIMHQDWLNGKEFKCRVNSAAFPAPIEKTISKTKGRPKAPQVYTIPPPKEQMAKDKVSLTCMITDFFPEDITVEWQWNGQPAENYKNTQPIMDTDGSYFVYSKLNVQKSNWEAGNTFTCSVLHEGLHNHHTEKSLSHSPGKGGGGLNDIFEAQKIEWHESRHHHHHH
notes: Bivalent; also called 10A1 scFv-Fc
- fold improvement of apparent KD over Clone 10 [7]: 14 fold

B6: 10A1 with light chain D50 mutated to serine (yeast display format) (scFv, V domains shown)
VH: QVQLQQSGPVLVKPSQTLSLTCAISGDSISSDTTAWSWIRRSPSRGLEWLGWTYYRSKWFNYYAVSVKGRVTINPDTSKNQFSLQLSSVTPEDTAVYYCARGNGNGGMDVWGQGTTVTVSS
VL: SYVLTQPASASVSPGQTARITCSGDALPKQYAYWYQQKPGQAPVLVIFKSSERPSGVPERFSGSSSGTTVTLTISGAQAEDEADYYCQSVDNSGFYQVFGGGTQLTVL
notes: also called D50L to serine
- binding result [8]: no binding (tested: 100 nM SAV-CD99 complex)

B7: 10A1 with light chain D91 mutated to serine (yeast display format) (scFv, V domains shown)
VH: B6 VH
VL: B6 VL with S50D, D91S
notes: also called D91L to serine
- binding result [8]: no binding (tested: 100 nM SAV-CD99 complex)

B8: clone 10 in the scFv-Fc format (Fc fusion)
chain: QVQLQQSGPVLVKPSQTLSLTCAISGDSVSSDTTAWSWIRQSPSRGLEWLGWTYYRSKWFNYYAVSVKSRVTINPDTSKNQFSLQLSSVTPEDTAVYYCARGNGNGGMDVWGQGTTVTVSSGILGSGGGGSGGGGSGGGGSSYVLTQPPSVSVSPGQTARITCSGDALPKQYAYWYQQKPGQAPVLVIFKDSERPSGIPERFSGSSSGTTVTLTISGVQAEDEADYYCQSADNSGFYQVFGGGTQLTVLSGSSSSLEGCKPCICTVPEVSSVFIFPPKPKDVLTITLTPKVTCVVVDISKDDPEVQFSWFVDDVEVHTAQTQPREEQFNSTFRSVSELPIMHQDWLNGKEFKCRVNSAAFPAPIEKTISKTKGRPKAPQVYTIPPPKEQMAKDKVSLTCMITDFFPEDITVEWQWNGQPAENYKNTQPIMDTDGSYFVYSKLNVQKSNWEAGNTFTCSVLHEGLHNHHTEKSLSHSPGKGGGGLNDIFEAQKIEWHESRHHHHHH
notes: also called Clone 10 scFv-Fc antibody
- binding result [3]: binds
- binding result [4]: no binding (tested: 600 nM Fv)
- binding result [5]: no binding (tested: 600 nM Fv)
